# Experiment: label from the status in PepcDB records
row,Sequence,protein production
1,MFQDNPLLAQLKQQIQEKLPKKEGTIKATERGFGFLESDDKKKSIFIPPAQMKKVMHGDKVVALIRTENEKEQAEPDQLIEQSITRFIGRIQMFKKRLQVMPDHPSLKNAIKAKTRKGVNPETLKEGDWVVAELTQHPLKGDQGFQCDITHKITDSDDKIAPWWVTLAQNDLPNSEPEGIEHWEIKDDADLVRVDMTATPFVTIDGESTKDMDDALYIKKLENGSFELTIAIADPTAYITPDDSMDKVARERGYTIYLPGRNIPMLPRDLSDELCSLIEGQERPALCCTVLVDANGNIQEDSINFFAATIKSHARLAYDHVSDFLETGSCDKWQPNDTIAQVVTELYEFAQVRTTWRETHAVIFPDRPDYRFELSEDNDVIAIHADMRRTANKLVEEAMVTANICAGKTLRAAFNMGVFNSHAGIKSDKLKDVVEIVNQLEGVDFTEEQIATLEGFSELRRLLGKQPTSYLDARIRKFQTYSETGNEPLPHYAMGLDIYATWTSPIRKYSDMINHRMLKAHILGKEPVQRPDDIVGEELAISRRFHRMAERNVSDWLYCRTLASEVEKETKYTAEIFDINRAGMRVRLIENGAAAFIPGSLIVDNKERIECNADQGIISIDKHETFKLGDQLHVVLAEVKEDTRNMVAKPLQAFPAPEPEEAPVVENEDATTNATTSADA,failed
2,MFQDVLVITVAVGRGGDGAVSFRREKFVPKGGPDGGDGGRGGSVYLRARGSVDSLSRLSKRTYKAEDGEHGRGSQQHGRGGEDLVIEVPRGTRVFDADTGELLADLTEEGQTVLVARGGAGGRGNMHFVSPTRQAPRFAEAGEEGEKRRLRLELMLIADVGLVGYPNAGKSSLLAAMTRAHPKIAPYPFTTLSPNLGVVEVSEEERFTLADIPGIIEGASEGKGLGLEFLRHIAGTRVLLYVLDAADDPFKTLKTLRKKVWAYDPGLLGRPSLVALNKVDLLEKEAVKALADALAREGLAVLPVSALTGAGLPALKEALHALVRSTPPPEMPKPVPRKEVQAGVEVVPVAEGVYEVRAPEVERYLARIKGDLMEAAGYLQEVFRRQGVEAALRAKGVRAGDLVRIGGLEFEYIPEV,not failed
3,MFQPVTQKRLTNVSVVRMRKGGKRFEIACYPNMVMAYREGHVRDLDEVIQVEDVFENVSKGKLAANADLERCFGTRDRHAVLLQILLHGDLQVSDRERQYQSTRKLHEIASVVAAKTISRETKKPLPVGLIEKALREIHFAVQPNRPAKAQALEVIPLLRAQSGLDLERARLRLRIHVPSQRDAKAVKARLEPLQQGETDGTHSSSRSDSVRMKDGSAAVESESEEWLPGGALLWTVQADPGAFREIEEIVQRETNQQGIVEVASLRVLDDEDESILS,failed
4,MFRFADPNFLYLLILLPFLVALYLYSNYHRRQNIRKYGDPALLKGLMPTISKYRPDIKFWLTFAALTLVILMLARPQFGSKMETVKRSGVEAVIALDISNSMLAEDVTPSRLDKSKKLISRLVDTFNNDKVGLIVFAGDAFTQLPITSDYVSAKMFLETINPSLITTQGTDIGAAIRLAMKSFTPQEGVGRAIIVITDGENHEGGAVEAAQEAAEKGMQVFVLGVGSPDGSPIPAEDGSNNFRRDKDGNVIVTRLNEQMCQEIAKAGNGMYIRVDNTNSAEKVLNNEIAKLSKADVESQVYTEFDEQFQALAWLVLILLVVEMLILERKNPLFKNVRLFK,failed
5,MFRQSKRRIASRKNFSSYDDIVKSELDVGNTNAANQIILSSSSSEEEKKLYARLYESKLSFYDLPPQGEITLEQFEIWAIDRLKILLEIESCLSRNKSIKEIETIIKPQFQKLLPFNTESLEDRKKDYYSHFILRLCFCRSKELREKFVRAETFLFKIRFNMLTSTDQTKFVQSLDLPLLQFISNEEKAELSHQLYQTVSASLQFQLNLNEEHQRKQYFQQEKFIKLPFENVIELVGNRLVFLKDGYAYLPQFQQLNLLSNEFASKLNQELIKTYQYLPRLNEDDRLLPILNHLSSGYTIADFNQQKANQFSENVDDEINAQSVWSEEISSNYPLCIKNLMEGLKKNHHLRYYGRQQLSLFLKGIGLSADEALKFWSEAFTRNGNMTMEKFNKEYRYSFRHNYGLEGNRINYKPWDCHTILSKPRPGRGDYHGCPFRDWSHERLSAELRSMKLTQAQIISVLDSCQKGEYTIACTKVFEMTHNSASADLEIGEQTHIAHPNLYFERSRQLQKKQQKLEKEKLFNNGNH,failed
6,MFRTALRNVFAHKARLLMTVLAVMLGVAFVSGTLVFADTLSNAFRNQSAKSYQDVAVAVTSYADSDNPKDEYALSDEVLDRISAVDGVAGVYGRVEGFAGVADPDGKLIGVGWSNKGSNFAPGKDGKDAAYTFTDGSGPVKDDQIALDEDSAGKGEYQVGDRVRVATNGPVKEYTLSGVFTTEDGAVNAGGSLVLFDTAVAQKQYLRPGYFESATVAAAPGADDARILKAVEPLLPDTAEAQTGRALADEQADQIEQGMGNLKQVLLGFAGIALFVGIFLISNTFTMLVAQRTKEIALMRAVGASRRQITRSVLAEAALVGLVASAVGFALGVGLAVGLRSGMAAFDMKMPAGPLVLSATPVVAAFAVGVLITVFAAWLPGRRAAKIPPVAAMNS,failed
7,MFRVLHLADLHLGYRPDLPAPVREEVYRARNRVLQAAVDLALDPRQGISLVLIAGDLFDNHRPEASLVEETIRQLTRLEAAGIQVITVPGNHDEITYNDAVYRREAGRWPGLLVTDPMPAKVATLKVKGDTCHLMAMAYTGGVTRVDGPLKAFPPAEGEGVNLAVFHGSLDWDGGERSLPLDGEALAAAGYDYIALGHIHRGGQRRLGRGLAVYAGMVAGKGFADPGTGSWTIVTLGDGPARVEQVPARVTPWRLVDLDVTAFQEPEELETAVRDALDPGALMQVRLTGSLAFDLDLEGLQARLGHPCPYLELVNETAGWTPEILESIAAEPTIRGLFVRRLQEKLAGSAGPGEAEVIRRAIFRGLLALKGGSR,failed
8,MFSAKKLSPADKLKNISSMLEEIVEDTTVPRNIRAAADNAKNALHNEEQELIVRSATAIQYLDDISEDPNMPIHTRTQIWGIVSELETIK,not failed
9,MFSFPAVLEAGIVFLYIAVALFLATLGIWIARTFLMPNVIKEDWNSLNRISFTTVIPLSASVMNAAIIAYYGFNVHYEYLYLVNYFIDFTSILFLSFFLGYKLYTKSPVHTNEISYGLLIPPVAISSNVLLGSSLMRTQYFNSIIFLTVIGVGIALFLFLFIGIMTFASYIRDQKANAPSPMLVLPVGVSSIIVINILAIATAKSVFQIPMADALTVSFMLWAFELWNFVVAMMISLKRVFREPATISIWAYTFPMAIFSVSSLDLRSIIGRYGYITASNIVYYIGIGAWVILIVAWVYAVMSTAIFLSHIKMIAYPG,failed
10,MFSGKRLKKRRITLGYSQSELADKLHINRSSYFNWENEKTKPNQSNLKQLAILLDVPETYFESEYKIVNTYLQLSLQNQEKVEKYAEELLQTQKVHEKIVPLFAVEVLSEIQLSAGPGEGLYDEFETETVYSEDEYTGFDIATWISGNSMEPVYKDGEVALIRSTGFDHDGAVYALNWNGSLYIKKLYREEDGFRMVSINPDVAERFIPFEDEIRIVGKIVGHFMPVIGGLEHHHHHH,not failed
11,MFSLSFPSSSSALLPSLVAFDSSRRLSLQPKKLNRLQSHLFSPQHLSFSQSNVSRYRAFCVSSSSPPEGTVSVVDFHEKDWSFLESMEIDSTEHTQKIERIIKAGELSESSRVLVSISSETFVDRLVESSPSQLLLIVHDSLFTLACIKEKYDKVKCWQGEMIYVPEKWSPLDAVFLYFLPALPFDLDELFKTLSQRCSSGARVVISHPQGRLGLEQQRKEFSDVVVSDLPDESTLSNVAEKHSFELTQFVDEQGLYLAVLKSSKQ,failed
12,MFSNVNKTTSAEAGKSAFWAMSIFLLLLSIMLLVLGLYYQIVLHHTPAPLLLGIAAGFGLGTPLEIWNFSDPDTLMRVMAFQDRFLIVCFGFSIGLGAILLYLFAAIPGVSPHYGIKDFFVFGVVVGGLLFGVGVGLAGYFPGTIWIALGQGRRDAIYAVFGGLLGALTWSLIFGAARGFFWNTFNYGPITWYSIFGIKSHLEIFGTSLIFGAILLGMFLFLPRYPKQPVKESCGFHLAGKNNKVLTFDDMIDDENKKYPDQNQYLIRLTNESSIRNARSIIVLGIAFTVIAVAVILLRQIFGESTTYSWIGAQLFYAVNPQYAASNPYWNLFGGMHIVNGKPIDLPFSEIGWEPFSDLGTFLGGLISSIFISKRFMKFKKRVPLVWEHRFGPSDKKRFVGSFFGAFLVLFGARMANGCASGHVLSGNIQMAISSFVFLMAVLIGSWLTLYFVMGLKLNSRGYRN,failed
13,MFSPEGPTRRELAVQALSSVERGYDLLAPKFDHTPYRTPDRVLDAVARGLEPLGPFAAGLDLCCGTGAGVEVLARVCQRDVTGVDFSAGMLEVARRRTLPPGPEVSWVRADARALPFGPAFDLVVSFGAFGHFLPRELPGLFGQVRSVLRPDGCFAFPVAAPPRPGSPGYWTLLGFDAAMRVRNALWRPPFVMYYRTFRLGAVGRELSRAGFRTDLHALPEFGRRPDGSPRARLVVARRLP,failed
14,MFSQTIFFGMKQSARGVSVAFSTLQEASMHKRVLIQAASALLALQFMAVPVFAAGSSGGGSDQTVTQCKKGEVWDKKKKKCVAPQEGMLDDDSIYDAGHALAMAGRYDEAISVLTLAANKQDPRILNYLGYSHRHSGRVTVGLGYYEEALRIDPNYTLVREYLGEAHLQIGDLAGAQQQLMEIEKRTGKGSREYGMLSEQIDHFMRS,failed
15,MFSSFSSRRRFRDLSDAEILALAISSEEDDARIYRSYADRLRAPYPGTAALFEAMAEEEDSHRRRLIGTFRDRFGETIPLIRREHVEGYPSRKPVWLLETLPLERVRREAWEMENAARSFYETAARHVTDASTRKLLGDLAAAEAAHEHRAERLAEEHLTDEATAAEDETARRQFILTWVQPGLAGLMDGSVSTLAPIFATAFATQDPATTFQVALAASVGAGISMGFTEAAHDDGVLSGRGAPWKRGLASGVMTTAGGLGHALPYLIPDFAWATGIAIAVVFFELWAIAWIQNRYMETPFLRAALQVVLGGGLVLAAGILIGFG,failed
16,MFTGMIRLVTLGTFAAALLSSPALAAGGGGGGGGGGSISSTDPYAGAYSDQKPQPTYPKRPGTKATQKGKKQGNQSSIGDPAFAAGYRVAYDTIYERNDYATAIAQLKSLGHDDHPNVANLIGYSYRKLGDYEQSQVWYERALRADPNHVQTWQYYGLWQLERGNREQALYHLGRIASICGTDCDEYRSLAAALDKPSGTALVY,failed
17,MFTLALPTPPPLAQARGSGLSAAFAAGAVIPVGDTPGGIALTPTGTRAYVANHGSNTVSVLDTVTDTVIDTIATGGGPNAVAFSPDGTRAYVTVADDGLVSVIDTATNTIVTDIAVGAGATGVAVTPDGSRVYVTLQSSDTVGVIDTATNTVTASIPAAGTPLGLVITPDGTRAYVACLFANAVRVIDTATNTVIATIPVGPVPILLAVSPGGTHVYVTNVGNSTVSVIDTATSAVIATVGVSAQPRFAAVSPDGFHVYVANSGPDTVSVIDTATQTVVENIGVGDGPTGIALLPDGTRAYVTNAVAGTVGVMATTVIPDQGSTAGGTTVTLTGHHLANATAVHFGTAQAVITANTATSMTVTAPAGSGAVPVTVTTAGGTGTLGHFYYVPVPALSGINPAAGPVAGSDDEIVLTGRHLAGAIDVYFGTTRAVIQTVSDNQVTVRAAGAPAPGGTAVTVITAGGSAGGLSYTYLDPSTVTGVSPDSGPTTGGTEVTITGTGLAGTEQVTFNGIPAAFTVVSDSTLTATTPPSGAAGPVGVTVTGPGGAPAGTFTYVSEPDI,failed
18,MFTLRELPFAKDSMGDFLSPVAFDFHHGKHHQTYVNNLNNLIKGTDFEKSSLFDILTKSSGGVFNNAAQIYNHDFYWDCLSPKATALSDELKGALEKDFGSLEQFKEDFIKSATTLFGSGWNWVAYNLDTQKIEIIQTSNAQTPVTDKKVPLLVVDVWEHAYYIDHKNARPVYLEKFYEHINWHFVSQCYEWAKKEGLGSVDYYINELVHKKA,failed
19,MFTRRGDQGETDLANRARVGKDSPVVEVQGTIDELNSFIGYALVLSRWDDIRNDLFRIQNDLFVLGEDVSTGGKGRTVTREMIDYLEARVKEMKAEIGKIELFVVPGGSIESASLHMARAVSRRLERRIVAASKLTEINKNVLIYANRLSSILFMHALLSNKRLNIPEKIWSIHRVS,not failed

# — a protein production outcome set (Wang et al. 2014)
